This is an account of results in the nanobody polyreactivity screen of Harvey et al. (2022).

This series can be described thus: yeast display, Sf9 membrane polyspecificity reagent, FACS + sequencing; frameworks hold sequencing errors. In a few lines: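 Polyreactivity labels are assigned by the sorting gate from which each nanobody was recovered. The gates were low and high (top ~1%), set on anti-HA fluorescence for expression and streptavidin fluorescence for reagent binding. Before sorting, galactose-induced (36–48 hours) yeast display cells were stained for 1 hour at 4 °C with 10% biotinylated, detergent-solubilized Sf9 membrane reagent.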
As for “QVQLVESGGGLVQAGGSLRLSCAASGFIFGGNAMGWYRQAPGKVRELVAAITARSGSTYYADSVKGRFTISRDNAKNTVYLQMNSLKPEDTAVYYCAKGSLGSTRYYYWGQGTQVTVSS”, the “polyreactivity (PSR sort gate)” value is reported as “low polyreactivity”.
For “QVQLVESGGGLVQAGGSLRLSCAASGFIFGGYAMGWYRQAPGKERELVADISSGDSTKYADSVKGRFTISRDNAKNTVYLQMNSLKPEDTAVYYCAADAVVSTWTQFEYDYWGQGTQVTVSS”, the “polyreactivity (PSR sort gate)” value is on record as “low polyreactivity”.
As for “QVQLVESGGGLVQAGGSLRLSCAASGFIFGGYAMGWYRQAPGNERDLVAAITSSGGDTYYADSVKGRFTISRDNAKNTVYLQMNSLKPEDTAVYYCAKRARRIGDVNMGSWGQGTQVTVSS”, the entry is “low polyreactivity”; as for “QVQLVESGGGLVQAGGSLRLSCAASGFIFGGYTMGWYRQAPGKERELVAAISKTGGSTYYADSVKGRFTISRDNAKNTVYLQMNSLKPEDTAVYYCAVARSAYYRGNHWGQGTQVTVSS”, “high polyreactivity”.
As for “QVQLVESGGGLVQAGGSLRLSCAASGFIFGHNDMGWYRQAPGKERELVASISKSGGDTYYADSVKGRFTISRDNAKNTVYLQMNSLKPEDTAVYYCAADGPDAYYYHRYIYFRRSYYWGHGTQVTVSS”, the entry is “low polyreactivity”; as for “QVQLVESGGGLVQAGGSLRLSCAASGFIFGHNTMVWYRQAPGKERELVAAITRSGGRTYYADSVKGRFTISRDNAKNTVYLQMNSLKPEDTAVYYCNAYPTRPADGDYDYWGQGTQVTVSS”, “high polyreactivity”.
As for “QVQLVESGGGLVQAGGSLRLSCAASGFIFGHYAMGWYRPAPGKERELVATIRRDPSRTYYADSVKGRFTISRDNAKNTVYLQMNSLKPEDTAVYYCATAQYIWGRSKYYYWGQGTQVTVSS”, the entry is “high polyreactivity”; as for “QVQLVESGGGLVQAGGSLRLSCAASGFIFGHYTMGWYRQAPGKERELVAAITTGGRTYYADSVKGRFTISRDNAKNTVYLQMNSLKPEDTAVYYCAARGYIWGQGTQVTVSS”, “high polyreactivity”.
Consider “QVQLVESGGGLVQAGGSLRLSCAASGFIFGINAMGWYRQAPGKERELVAAISKRTGSTYYADSVKGRFTISRDNAKNTVYLQMNSLKPEDTAVYYCNVVRYNGLDKYDYWGQGTQVTVSS”, for which the “polyreactivity (PSR sort gate)” value is given as “high polyreactivity”.
The same measure for “QVQLVESGGGLVQAGGSLRLSCAASGFIFGIYAMGWYRQAPGKERELVAAISYRGGRTYYADSVKGRFTISRDNAKNTVYLQMNSLKPEDTAVYYCNTRGYRPGYNYWGQCTQVTVSS”: “high polyreactivity”.
As for “QVQLVESGGGLVQAGGSLRLSCAASGFIFGKYAMGWYRQAPGKEREFVAAITGNGGSTYYADSVKGRFTISRDYAKNTVYLQMNSLKPVDSAVYYCYADRGYRRRSGMVYWGQGTQVSVSS”, the entry is “low polyreactivity”; as for “QVQLVESGGGLVQAGGSLRLSCAASGFIFGLYDMGWYRQAPGKERELVAAISWSGGSTYYADSVKGRFTISRDNAKNTVYLQMNSLKPQDTAFYYCAAKHVGWYVQEEDYWGQGSQVTVSS”, “low polyreactivity”; as for “QVQLVESGGGLVQAGGSLRLSCAASGFIFGLYGMGWYRPAPGKERELVAAISTSSGITYYADSVKGRFTISRDNAKNTVYLQMNSLKPEDTAVYYCAARGHYYDYWGQGTQVTVSS”, “low polyreactivity”.
The same measure for “QVQLVESGGGLVQAGGSLRLSCAASGFIFGNNDMGWNRQAPGKERELVAGITWSGSSTYYADSVKGRFTISRDNAKNTVYLQMNSLKPEDTAVYYCARDGNDGYEYWGQGTQVTVSS”: “high polyreactivity”; for “QVQLVESGGGLVQAGGSLRLSCAASGFIFGPNAMGWYRQAPAKERELVAAISYSGGRTYYADSVKGRFTISRDNAKNTVYLQMNSLKPEDTSVYYCAADAYWYGRSYYWGQGTQVTVSS”: “high polyreactivity”.
For the sequence “QVQLVESGGGLVQAGGSLRLSCAASGFIFGPNAMGWYRQAPGKERELVAAIRWSSGTTYYADSVKGRFTISRDNAKNTVSLQMNSLKPEDTAVYYCAAGPYVSYYWGQGTQVTVSS”, the “polyreactivity (PSR sort gate)” value is given as “low polyreactivity”.
As for “QVQLVESGGGLVQAGGSLRLSCAASGFIFGQYAMGWYRQAPGKERELVAAISWSGGRTNYADSVKGRFTISRDNAKNTVYLQMNSLKPEDTAVYYCAARKGKYPQYTYGYWGQGTQVTVSS”, the entry is “high polyreactivity”.
The same measure for “QVQLVESGGGLVQAGGSLRLSCAASGFIFGRKSMGWYRQAPGKERELVAAISSGDSTYYADSVKGRFTISRDNAKNTVYLQMNSLKPEDTAVYYCAARLVRQQSRPKGGYWGQGTQVTVSS”: “high polyreactivity”.
As for “QVQLVESGGGLVQAGGSLRLSCAASGFIFGRNAMGWYRQAPGKEREFVAAITRIGGNTYYADSVKGRFTISRDNAKNTVYLQMNSLKPEDTAVYYCAARLSYFHAYGFYWGQGTQVTVSS”, the entry is “high polyreactivity”; as for “QVQLVESGGGLVQAGGSLRLSCAASGFIFGRYAMGWYRQAPGKERELVARITGIGTRTYYADSVKGRFTISRDNAKNTVYLQMNSLKPEDTAVYYCAVRPFYWGQGTQVTVSS”, “high polyreactivity”; as for “QVQLVESGGGLVQAGGSLRLSCAASGFIFGRYTMGWYRQAPGKERELVAAISGSDVSTYYADSVKGRFTISRDNAKITVYLQMNRLKPEDTAVYYCAADAPWAYYEYDYWGQGTQVTVSS”, “low polyreactivity”.
For the sequence “QVQLVESGGGLVQAGGSLRLSCAASGFIFGRYTMGWYRQAPGKERELVAAISGSDVSTYYADSVKGRFTISRDNAKNTVYLQMNSLKPEDTAVYYCAADAPWAYYEYDYWGQGTQVTVSS”, the “polyreactivity (PSR sort gate)” value was “low polyreactivity”.
For the sequence “QVQLVESGGGLVQAGGSLRLSCAASGFIFGSYAMGWYRQAPGKERELVAAISWSGASTYYADSVKGRFTISRDKAKNTVYLQMNSLKPEDTAVYYCAAVSRYGWYDYWGQGTQVTVSS”, the “polyreactivity (PSR sort gate)” value was “high polyreactivity”.
The same measure for “QVQLVESGGGLVQAGGSLRLSCAASGFIFGTYAMGWYRQAPGKEREFVAAITTSGSSTRYADSVKGRFTISRDNAKNTVYLQMNSLKPEDTAVYYCAARNRTFFQPTYYYWGQGTQVTVSS”: “high polyreactivity”; for “QVQLVESGGGLVQAGGSLRLSCAASGFIFGTYVMGWYRQAPGKERELVAAISESGGRTYYADSVKGRFTISRDNAKNTVYLQMNSLKPEDTAVYYCNAPHHRYDWGQGTQVTVSS”: “high polyreactivity”; for “QVQLVESGGGLVQAGGSLRLSCAASGFIFGVNTMGWYRQAPGKERELVAAINSGGSTNYADSVKGRFTISRDNAKNTVYLLMNSLKPEDTAVYYCAVRHFWYRWGWYNYWGQGTEVTVSS”: “high polyreactivity”.
Consider “QVQLVESGGGLVQAGGSLRLSCAASGFIFGVYAKGWYRQAPGKERELVAAISGSGVRTYYADSVKGRFTISRDNAKNTLYLQMNSLKPEDTAVYYCAARRGFVRPYNYWGQGTQVTVSS”, for which the “polyreactivity (PSR sort gate)” value was “high polyreactivity”.
As for “QVQLVESGGGLVQAGGSLRLSCAASGFIFGVYAMGWYRQAPGKERELVAAITSTGSTYYADSVKGRFTISRDNAKNTVYLQMNSLKPEDTAVYYCATYYWLGLSLYDYWGQGTQVTVSS”, the “polyreactivity (PSR sort gate)” value is reported as “low polyreactivity”.
In the case of “QVQLVESGGGLVQAGGSLRLSCAASGFIFGVYAMRWYRQAPGKERELVAAISYRTGTTYYADSVKGRFTISRDNAKNTVYLQMNSLKTEDTAVYYCNAAVRGVGELDYWGQGTQVTVSS”, the “polyreactivity (PSR sort gate)” value is “high polyreactivity”.
As for “QVQLVESGGGLVQAGGSLRLSCAASGFIFGVYDMGWSRQAPGKERELVAAIDSVGSTYYADSVKGRFTISRDNAYNTVYLQMNSLKPEDTAVYYCAKDGSYQAYGYWGQGTQVTVSS”, the entry is “low polyreactivity”; as for “QVQLVESGGGLVQAGGSLRLSCAASGFIFGWNAMGWSRQAPGKEREFVAAISWSGGSTYYADSVKGRFTISRDNAKNTVYLQMNSLKPEDTAVYYCAREYHGDSRRYDYWGQGTQVTVSS”, “high polyreactivity”.
The same measure for “QVQLVESGGGLVQAGGSLRLSCAASGFIFGYNAMGWYRQAPGKERELVAAISSGGSTYYADSVKGRFTISRDNAKNTVYLQMKSLKPEDTAVYYCAVELGYPIQSYALWWDFEYWGQGTQVTVSS”: “low polyreactivity”; for “QVQLVESGGGLVQAGGSLRLSCAASGFIFGYNAMGWYRQAPGKERELVAAISTRGGSTYYADSVKGRFTISRDNAKNTVYLQMNSLKPEDTAVYYCNKVTRVPFDSWGQGTQVTVSS”: “high polyreactivity”; for “QVQLVESGGGLVQAGGSLRLSCAASGFIFGYNAMGWYRQAPGKESEFVAAISSSGASKYYADSVKGRFTISRDNAKNTVYLQMNSLKPEDTAVYYCAARYSWARYASTMGYWGQGTQVTVSS”: “high polyreactivity”.
The same measure for “QVQLVESGGGLVQAGGSLRLSCAASGFIFGYNDMGWSRQAPGKERELVAAINSGGSTYYADSVKGRFTISRDNAKNTVYLQMNSLKPDDTAVYYCAADYGYFEFDYWGQGTQVTVSS”: “low polyreactivity”; for “QVQLVESGGGLVQAGGSLRLSCAASGFIFGYNVMGWYRQAPGKERELVAAISSRGSSTYYADSVKGRFTISRDDVKNTVYLQMNSLKPEDTAVYYCAAYSSYNSWVSRRYGHDYWGQGTQVTVSS”: “high polyreactivity”; for “QVQLVESGGGLVQAGGSLRLSCAASGFIFGYYAMGWYRQAPGKERELVAAINKNGGSTYYADSVKGRFTISRDNAKNTVYLQMNSLKPEDTAVYYCAARARGYAWTYDYWGQGTQVTVSS”: “high polyreactivity”.
In the case of “QVQLVESGGGLVQAGGSLRLSCAASGFIFGYYAMGWYRQAPGKERELVAAISRGGITYYADSVKGRFTISRDNAKNTVYLQMNSLKPEDTAVYYCAAPNRYSVPMYYWGQGTQVTVSS”, the “polyreactivity (PSR sort gate)” value is on record as “low polyreactivity”.
As for “QVQLVESGGGLVQAGGSLRLSCAASGFIFGYYAMGWYRQAPGKERELVAAITRSGGSTRYADSVKGRFTISRDNANNNVYLQMNSLKPEDSAVYYCATRDGTHGYWGQGTQVTASS”, the entry is “high polyreactivity”; as for “QVQLVESGGGLVQAGGSLRLSCAASGFIFGYYAMGWYRQAPGKERELVAAITRSGGSTRYADSVKGRFTLSRDNAKNTVYLQMNSLKPEDTAVYYCTAYAPRQLYGYDYWGQGTQVTVSS”, “high polyreactivity”.
Take “QVQLVESGGGLVQAGGSLRLSCAASGFIFGYYAMGWYRQAPGKERELVAPIKYNDDSTYYADSVKARFTISRDNAKNTVYLQMNSLKPEDTAVYYCAASRFWPGNSYYYRYYYWGQGTQVTVSS”: the “polyreactivity (PSR sort gate)” value is reported as “low polyreactivity”.
